Reference: publication PMC4793217

T1: ME31B, endogenous (D. melanogaster (endogenous in embryos)) (UniProt P23128)
T1 sequence: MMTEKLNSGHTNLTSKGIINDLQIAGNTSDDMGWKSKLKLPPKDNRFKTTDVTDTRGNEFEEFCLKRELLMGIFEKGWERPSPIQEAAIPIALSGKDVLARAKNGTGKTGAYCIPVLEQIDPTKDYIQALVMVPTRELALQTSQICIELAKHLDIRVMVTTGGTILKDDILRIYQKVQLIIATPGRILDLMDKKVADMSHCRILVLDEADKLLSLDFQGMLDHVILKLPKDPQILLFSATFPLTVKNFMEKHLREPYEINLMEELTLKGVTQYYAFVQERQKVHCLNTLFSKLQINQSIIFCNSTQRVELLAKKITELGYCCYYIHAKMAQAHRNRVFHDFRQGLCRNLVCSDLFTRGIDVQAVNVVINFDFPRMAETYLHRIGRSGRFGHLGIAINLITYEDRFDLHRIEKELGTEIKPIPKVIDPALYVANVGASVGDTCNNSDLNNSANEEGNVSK


Experiments:
[1] = biological target: IMP, endogenous (D. melanogaster (endogenous in embryos)); assay: co-IP
[2] = biological target: T1, ME31B, endogenous (D. melanogaster (endogenous in embryos)); assay: co-IP

| percent of IP input precipitated [1] [%] | percent of IP input precipitated [2] [%] | Binder |
| --- | --- | --- |
| 1 to 10 |  | anti-IMP (P054) synthetic Fab (Fab, V domains shown) VH: EVQLVESGGGLVQPGGSLRLSCAASGFNLSYSYIHWVRQAPGKGLEWVASIYSYYSYTYYADSVKGRFTISADTSKNTAYLQMNSLRAEDTAVYYCARWWVVYGMDYWGQGTLVTVSS VL: DIQMTQSPSSLSASVGDRVTITCRASQSVSSAVAWYQQKPGKAPKLLIYSASSLYSGVPSRFSGSRSGTDFTLTISSLQPEDFATYYCQQHWWLITFGQGTKVEIK |
|  | < 1 | anti-ME31B (P012) synthetic Fab (Fab, V domains shown) VH: EVQLVESGGGLVQPGGSLRLSCAASGFNLSYSSIHWVRQAPGKGLEWVASIYSYYGYTYYADSVKGRFTISADTSKNTAYLQMNSLRAEDTAVYYCARWYWYGWALDYWGQGTLVTVSS VL: DIQMTQSPSSLSASVGDRVTITCRASQSVSSAVAWYQQKPGKAPKLLIYSASSLYSGVPSRFSGSRSGTDFTLTISSLQPEDFATYYCQQGPYPYYGLITFGQGTKVEIK |
